From patent US20090162869A1 (RIKEN, published 2009)

Target: T1, DAP12, endogenous in mouse cells (splenic cells, FL-PDC) (mouse, UniProt O54885 22-114, phosphorylated in CpG-A-stimulated FL-PDC (sites not given))
T1 construct: whole, on cells
Test: association in CpG-A-stimulated FL-PDC (FIG. 20); method not described

T1 sequence (O54885 22-114): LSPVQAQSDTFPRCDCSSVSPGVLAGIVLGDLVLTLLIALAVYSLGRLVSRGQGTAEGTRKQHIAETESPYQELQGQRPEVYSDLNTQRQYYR

B1: membrane molecule (A) of the present invention (PDC-TREM), mouse, full length (receptor)
chain: QNPELLRTQEGETVSVTCWYDSLYHSSEKIWCKQIDNLCYPFVSKSAEKPRFLIQQSSRFNFFTVTMTKLKMSDSGIYHCGIVANNTSVYLRNIHLVVSKGSSVVSTPDIIPATRLTKLPTLITTKHSPSDTTTTRSLPQPTTVVSSPDPRVIIINGTDADRGFVSSVTIPVVCGLLSKTLVFTVLFIVTQKSFGRQAMKAHNSNS
notes: also called the present membrane molecule
binding result: binds
